# Assay results taken from patent US20220193271A1 (REGENTS OF THE UNIVERSITY OF MICHIGAN, published 2022).
# Primed or numbered codes have the meaning given here. Ends that are not written are not given here. Cy5.5 = cyanine fluorophore coupled as NHS ester to the lysine side chain; Cy5.5″ = fluorophore Cy5.5, coupled as NHS ester to Lys side chain
# Columns and labels:
# [1] = target: human cMet on cells (HT29 human colorectal cancer cells; S114 cells; human colon tissue and organoids) (human) (UniProt P08581); assay: confocal microscopy, S114 versus NIH3T3 cells
# [2] = target: human cMet on cells (HT29 human colorectal cancer cells; S114 cells; human colon tissue and organoids) (human) (UniProt P08581); assay: confocal microscopy, HT29 cells with control or cMet siRNA
# [3] = target: human cMet on cells (HT29 human colorectal cancer cells; S114 cells; human colon tissue and organoids) (human) (UniProt P08581); assay: confocal microscopy, HT29 versus SW480 cells
# [4] = target: T1, human cMet on cells (HT29 human colorectal cancer cells; S114 cells; human colon tissue and organoids) (human, UniProt P08581 25-1390); assay: confocal microscopy, S114 versus NIH3T3 cells, 5 µM peptide
# T1 construct: whole, on cells; also called mesenchymal-epithelial transition factor
# Source text: (§1) FIG. 11. Peptide validation with mouse cells in vitro. […] Two-way ANOVA models were fit with terms for 6 conditions and 6 replicate slides on log-transformed data. Measurements were an average of 5 randomly chosen cells on 6 slides for each condition. […] An ANOVA model was fit to log-transformed data with terms for 6 conditions. There were 6 replicate slides per condition and 10 cells measured per slide.
# (§2) HT29, SW480, S114 and NIH3T3 cells were inoculated in 12-well cell culture plates with circle glass coverslips to about 80% confluence. The cells were blocked with 1×PBS plus 2% BSA for 1 hour at 4° C., then were incubated with 5 μM peptides for 10 min at RT in the dark, washed thrice, and fixed with 4% PFA for 5 min, washed with 1×PBS, then mounted on glass slides with ProLong Gold reagent containing DAPI (Invitrogen, Waltham, Mass.).
# [5] = target: T1, human cMet on cells (HT29 human …); assay: confocal microscopy, HT29 versus SW480 cells, 5 µM peptide
# Description: FIG. 10. Peptide validation with human colorectal cancer cells in vitro. […] Two-way ANOVA models were fit with terms for 6 conditions and 6 replicate slides on log-transformed data. Measurements were an average of 5 randomly chosen cells on 6 slides for each condition.
# (§3) HT29, SW480, S114 and NIH3T3 cells were inoculated in 12-well cell culture plates with circle glass coverslips to about 80% confluence. The cells were blocked with 1×PBS plus 2% BSA for 1 hour at 4° C., then were incubated with 5 μM peptides for 10 min at RT in the dark, washed thrice, and fixed with 4% PFA for 5 min, washed with 1×PBS, then mounted on glass slides with ProLong Gold reagent containing DAPI (Invitrogen, Waltham, Mass.). As positive control, after blocking with 2% BSA for 1 hour at 4° C., A 1:3000 dilution of primary monoclonal rabbit anti-cMet antibody (Cell Signaling Technology, #8198) was incubated with cells overnight at 4° C. […] Confocal fluorescence images were collected using a 63× oil-immersion objective (Leica SP5 Inverted 2-Photon FLIM Confocal). Fluorescence intensities from five cells in two independent images were quantified using custom Matlab (Mathworks) software.
# [6] = target: T1, human cMet on cells (HT29 human …); assay: confocal microscopy, HT29 cells with control or cMet siRNA, 5 µM peptide
# Source text: FIG. 2. In vitro validation with cMet knockdown. […] Fluorescence intensities for D) peptide and E) antibody were reduced with HT29 knockdown cells transfected with sicMet-targeting siRNA. […] A two-way ANOVA model was fit with terms for 6 conditions and 6 replicate slides on log-transformed data. Measurements were an average of 5 randomly chosen cells on 6 slides for each condition.
# as §3
# [7] = target: T1, human cMet on cells (HT29 human …); assay: flow cytometry, QQT*-Cy5.5 at 0-200 nmol/L on HT29 cells, 1 hour at 4 °C
# Description: We assessed the binding affinity of QQT*-Cy5.5 to HT29 cells by measuring the apparent dissociation constant. HT29 cells were blocked with 0.5% BSA, and then approximately 10⁵ cells were incubated with QQT*-Cy5.5 at concentrations of 0, 10, 25, 50, 75, 100, 125, 150, or 200 nmol/L for 1 hour at 4° C. Cells then were washed 3 times with 1×PBS containing 0.5% BSA to remove unbound peptides before analysis with flow cytometry (FACS Canto; BD Biosciences, San Jose, Calif.). Sample means were used to calculate the equilibrium dissociation constant KD using nonlinear regression analysis with Origin 6.1 data analysis software (OriginLab, Northampton, Mass.). […] I₀ and Iₘₐₓ are the initial and maximum fluorescence intensities, corresponding to no peptide and peptide saturation, respectively, and [X] represents the concentration of the bound peptide.³⁴
# Specific binding of QQT*-Cy5.5 to cMet was confirmed by adding unlabeled QQT* to compete for binding. […] An apparent dissociation constant of kd=57 nM was measured for binding by QQT*-Cy5.5 to HT29 cells using flow cytometry, FIG. 3C, and an apparent association time constant of k=0.62 min⁻¹ (1.6 min) was measured for the same cells, supporting rapid binding with topical administration, FIG. 3D.
# [8] = target: T1, human cMet on cells (HT29 human …); assay: confocal microscopy, S114 cells, reference TLQ*-Cy5.5
# Source text: as §1, §2
# [9] = target: T2, mouse cMet on colonocytes of CPC;Apc mouse colon (mouse, UniProt P16056 25-1379); assay: ex vivo NIR fluorescence imaging of excised CPC;Apc mouse colon
# T2 construct: whole, on cells; Target in tissue staining; also called cMet (mouse colon adenoma / dysplasia)
# Description: After imaging was completed, the mice were euthanized. The colon was resected and divided longitudinally, the colon was excised, flushed with PBS, and opened longitudinally for imaging with the NIR fluorescence imaging system (Pearl®, LI-COR Biosciences). Images were collected with […] resolution using λex=685 nm and λem=720 nm. Images were analyzed with custom software (Image Studio, Li-Cor Biosciences). The normal colon region with an equal area adjacent to the polyps was used to measure background. Prism software (v6.02, GraphPad) was used to plot data.
# After imaging was completed, the CPC;Apc mice were euthanized, and the colon was excised and divided longitudinally to expose the mucosal surface for collection of macroscopic white light and fluorescence images, FIGS. 5 L,M and 13A, B. The polyp locations co-localized on white light and fluorescence images, FIG. 13C. […] Immunohistochemistry was performed with a known antibody to validate increased expression of cMet in mouse dysplasia, FIG. 13E, by comparison with normal colonic mucosa, FIG. 13F.
# Chain of human cMet on cells (HT29 human colorectal cancer cells; S114 cells; human colon tissue and organoids) (human) (P08581 25-1390): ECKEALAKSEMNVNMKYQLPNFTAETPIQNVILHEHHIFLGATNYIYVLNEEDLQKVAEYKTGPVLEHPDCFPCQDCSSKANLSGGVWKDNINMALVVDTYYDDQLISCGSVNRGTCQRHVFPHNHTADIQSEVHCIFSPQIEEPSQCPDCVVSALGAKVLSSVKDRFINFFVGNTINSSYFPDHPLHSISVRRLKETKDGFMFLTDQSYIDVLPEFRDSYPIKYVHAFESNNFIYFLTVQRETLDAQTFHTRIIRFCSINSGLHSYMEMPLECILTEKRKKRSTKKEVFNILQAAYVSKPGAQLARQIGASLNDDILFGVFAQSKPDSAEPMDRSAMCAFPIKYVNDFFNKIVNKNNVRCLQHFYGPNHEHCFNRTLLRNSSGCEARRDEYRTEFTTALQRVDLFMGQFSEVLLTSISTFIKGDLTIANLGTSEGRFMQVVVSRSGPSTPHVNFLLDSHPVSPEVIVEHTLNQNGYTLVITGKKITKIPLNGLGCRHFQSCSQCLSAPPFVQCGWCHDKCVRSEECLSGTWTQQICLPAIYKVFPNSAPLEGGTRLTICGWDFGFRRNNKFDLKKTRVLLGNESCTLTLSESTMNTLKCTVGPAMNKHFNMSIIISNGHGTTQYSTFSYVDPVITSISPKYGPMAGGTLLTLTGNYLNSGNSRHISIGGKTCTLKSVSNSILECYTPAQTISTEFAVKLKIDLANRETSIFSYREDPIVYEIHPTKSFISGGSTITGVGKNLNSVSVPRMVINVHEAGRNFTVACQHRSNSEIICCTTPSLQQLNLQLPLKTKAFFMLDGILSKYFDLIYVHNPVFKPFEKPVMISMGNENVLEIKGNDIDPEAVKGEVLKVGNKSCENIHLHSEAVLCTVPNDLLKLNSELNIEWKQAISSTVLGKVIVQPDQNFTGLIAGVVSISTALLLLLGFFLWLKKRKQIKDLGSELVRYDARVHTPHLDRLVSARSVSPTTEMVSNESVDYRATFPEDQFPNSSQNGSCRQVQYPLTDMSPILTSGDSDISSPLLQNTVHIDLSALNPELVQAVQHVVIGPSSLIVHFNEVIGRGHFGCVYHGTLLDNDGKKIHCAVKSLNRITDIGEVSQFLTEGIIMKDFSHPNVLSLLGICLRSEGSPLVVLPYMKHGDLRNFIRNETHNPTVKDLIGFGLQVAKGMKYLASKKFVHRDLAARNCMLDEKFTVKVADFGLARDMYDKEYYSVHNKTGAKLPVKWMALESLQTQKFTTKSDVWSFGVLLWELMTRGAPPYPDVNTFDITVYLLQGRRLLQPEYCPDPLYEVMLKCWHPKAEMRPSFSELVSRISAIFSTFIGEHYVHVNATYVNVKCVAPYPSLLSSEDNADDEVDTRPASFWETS
# T1 sequence (P08581 25-1390): as above
# T2 sequence (P16056 25-1379): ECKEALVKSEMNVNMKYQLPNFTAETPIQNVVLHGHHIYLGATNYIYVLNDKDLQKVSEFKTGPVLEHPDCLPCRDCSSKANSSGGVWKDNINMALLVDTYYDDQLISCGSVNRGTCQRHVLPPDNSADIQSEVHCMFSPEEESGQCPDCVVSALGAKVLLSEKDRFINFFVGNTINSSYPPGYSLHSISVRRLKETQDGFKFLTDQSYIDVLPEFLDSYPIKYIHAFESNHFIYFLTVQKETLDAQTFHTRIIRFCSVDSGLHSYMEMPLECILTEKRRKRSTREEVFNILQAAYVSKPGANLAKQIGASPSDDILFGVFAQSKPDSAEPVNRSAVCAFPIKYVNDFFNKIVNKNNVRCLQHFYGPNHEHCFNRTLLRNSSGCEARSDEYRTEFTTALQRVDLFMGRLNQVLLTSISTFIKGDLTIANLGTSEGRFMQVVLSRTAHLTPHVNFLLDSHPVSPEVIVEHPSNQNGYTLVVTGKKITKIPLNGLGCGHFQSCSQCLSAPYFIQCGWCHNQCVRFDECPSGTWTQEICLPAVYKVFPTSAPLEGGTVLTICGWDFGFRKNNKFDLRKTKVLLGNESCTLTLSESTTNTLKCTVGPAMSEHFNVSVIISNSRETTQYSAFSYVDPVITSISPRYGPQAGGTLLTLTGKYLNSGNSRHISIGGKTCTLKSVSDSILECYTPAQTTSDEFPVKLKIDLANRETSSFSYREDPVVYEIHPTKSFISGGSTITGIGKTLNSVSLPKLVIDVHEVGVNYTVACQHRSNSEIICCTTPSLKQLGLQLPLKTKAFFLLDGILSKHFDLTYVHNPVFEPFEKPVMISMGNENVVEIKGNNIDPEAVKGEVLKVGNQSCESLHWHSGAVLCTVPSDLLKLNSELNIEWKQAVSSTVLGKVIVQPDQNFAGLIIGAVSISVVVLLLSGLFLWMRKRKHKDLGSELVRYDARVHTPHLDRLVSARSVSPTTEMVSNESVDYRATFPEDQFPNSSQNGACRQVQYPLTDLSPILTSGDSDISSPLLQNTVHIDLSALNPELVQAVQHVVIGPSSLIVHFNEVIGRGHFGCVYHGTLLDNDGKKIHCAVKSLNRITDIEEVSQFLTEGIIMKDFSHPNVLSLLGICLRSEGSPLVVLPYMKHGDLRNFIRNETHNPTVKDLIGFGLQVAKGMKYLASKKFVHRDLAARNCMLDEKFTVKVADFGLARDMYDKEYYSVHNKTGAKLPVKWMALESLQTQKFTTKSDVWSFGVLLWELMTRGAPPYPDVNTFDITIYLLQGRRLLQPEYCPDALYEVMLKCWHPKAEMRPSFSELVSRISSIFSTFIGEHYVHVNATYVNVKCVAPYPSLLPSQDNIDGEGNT
Molecule,"fold change of mean intensity, S114 (cMet+) versus NIH3T3 (cMet-) cells [1] [fold]",fold reduction of fluorescence intensity with knockdown of cMet (siCL versus sicMet HT29 cells) [2] [fold],"fold change of mean intensity, HT29 (cMet+) versus SW480 (cMet-) cells [3] [fold]","fold change of mean intensity, S114 (cMet+) versus NIH3T3 (cMet-) cells [4] [fold]","fold change of mean intensity, HT29 (cMet+) versus SW480 (cMet-) cells [5] [fold]",fold change of fluorescence intensity with knockdown of cMet (siCL versus sicMet HT29 cells) [6] [fold],Kd [7] [nM],fold fluorescence intensity versus TLQ*-Cy5.5 [8] [fold],fold reduction of fluorescence intensity with knockdown of cMet (siCL versus sicMet HT29 cells) [6] [fold],binding result [9]
"primary monoclonal rabbit anti-cMet antibody (Cell Signaling Technology, #8198) detected with AF488-labeled secondary antibody",6.7,4.1,4.3,,,,,,,
TLQWNQSGGGSK(Cy5.5″)-NH2 (Scrambled control of QQT*-Cy5.5; also called TQL*-Cy5.5) [TLQ*-Cy5.5 (scrambled control peptide TLQWNQS linked through a GGGSK linker to Cy5.5)],,,,0.72,0.85,0.96,,,,
QQTNWSLGGGSK(Cy5.5)-NH2 (Linear monomer made by Fmoc solid-phase synthesis; m/z 1827.67; also called target peptide),,,,2.4,2.1,,57,7,2.9,binds
